Laboratory results as given in IntAct's records for PubMed 19523115.

B1: Solute carrier family 2, facilitated glucose transporter member 8 (Mus musculus), Q9JIF3 (parent)
chain: MSPEDPQETQPLLRPPEARTPRGRRVFLASFAAALGPLSFGFALGYSSPAIPSLRRTAPPALRLGDNAASWFGAVVTLGAAAGGILGGWLLDRAGRKLSLLLCTVPFVTGFAVITAARDVWMLLGGRLLTGLACGVASLVAPVYISEIAYPAVRGLLGSCVQLMVVTGILLAYVAGWVLEWRWLAVLGCVPPTLMLLLMCYMPETPRFLLTQHQYQEAMAALRFLWGSEEGWEEPPVGAEHQGFQLALLRRPGIYKPLIIGISLMVFQQLSGVNAIMFYANSIFEEAKFKDSSLASVTVGIIQVLFTAVAALIMDRAGRRLLLALSGVIMVFSMSAFGTYFKLTQSLPSNSSHVGLVPIAAEPVDVQVGLAWLAVGSMCLFIAGFAVGWGPIPWLLMSEIFPLHVKGVATGICVLTNWFMAFLVTKEFSSVMEMLRPYGAFWLTAAFCALSVLFTLTVVPETKGRTLEQVTAHFEGR
B2: Solute carrier family 2, facilitated glucose transporter member 8 (Mus musculus), Q9JIF3 (parent)
chain: B1 chain
partner: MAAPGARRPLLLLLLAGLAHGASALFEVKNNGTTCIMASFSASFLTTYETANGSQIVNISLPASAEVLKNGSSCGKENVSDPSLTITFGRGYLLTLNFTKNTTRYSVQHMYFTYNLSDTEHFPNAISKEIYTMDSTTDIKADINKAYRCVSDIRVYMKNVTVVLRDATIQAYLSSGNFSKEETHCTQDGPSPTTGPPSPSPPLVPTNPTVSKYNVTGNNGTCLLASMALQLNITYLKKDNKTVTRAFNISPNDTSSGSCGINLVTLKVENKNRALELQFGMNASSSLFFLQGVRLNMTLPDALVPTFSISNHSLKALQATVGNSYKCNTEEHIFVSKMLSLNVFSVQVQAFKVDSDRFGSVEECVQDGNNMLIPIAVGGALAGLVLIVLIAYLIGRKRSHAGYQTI

Variants of: B1
Details: with ap1g1_human AP1G1, O43747
Chain of ap1g1_human AP1G1, O43747 (O43747 whole entry): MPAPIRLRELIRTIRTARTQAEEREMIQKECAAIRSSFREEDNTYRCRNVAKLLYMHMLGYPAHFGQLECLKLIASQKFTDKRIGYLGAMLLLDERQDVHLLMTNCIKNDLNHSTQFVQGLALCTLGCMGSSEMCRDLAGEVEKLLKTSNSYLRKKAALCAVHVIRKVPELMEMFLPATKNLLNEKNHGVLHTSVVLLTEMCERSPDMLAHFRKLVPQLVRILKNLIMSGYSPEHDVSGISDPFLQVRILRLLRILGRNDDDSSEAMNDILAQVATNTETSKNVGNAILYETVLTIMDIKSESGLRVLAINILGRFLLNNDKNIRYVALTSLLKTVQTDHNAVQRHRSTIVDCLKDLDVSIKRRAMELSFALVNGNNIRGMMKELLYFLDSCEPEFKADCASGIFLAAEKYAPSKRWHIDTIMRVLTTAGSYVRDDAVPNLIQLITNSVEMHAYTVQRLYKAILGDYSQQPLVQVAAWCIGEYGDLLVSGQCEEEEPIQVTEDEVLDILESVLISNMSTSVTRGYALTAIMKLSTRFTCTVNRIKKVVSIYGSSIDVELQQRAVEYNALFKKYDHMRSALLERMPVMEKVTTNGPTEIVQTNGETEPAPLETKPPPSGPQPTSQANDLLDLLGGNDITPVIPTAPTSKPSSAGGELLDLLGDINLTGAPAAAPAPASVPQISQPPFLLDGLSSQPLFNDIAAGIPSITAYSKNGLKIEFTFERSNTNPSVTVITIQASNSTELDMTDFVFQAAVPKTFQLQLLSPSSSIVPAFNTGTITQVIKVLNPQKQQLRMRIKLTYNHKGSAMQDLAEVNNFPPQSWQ

| Variant | effect of a mutation on the interaction |
| --- | --- |
| L12A | disrupting interaction |

Variants of: B1
Details: with ap1g1_mouse Ap1g1, P22892
Chain of ap1g1_mouse Ap1g1, P22892 (P22892 whole entry): as the sequence (O43747 whole entry) above, with T596S, S650A, N664T, A674T, A702P, I769V counted along it

| Variant | effect of a mutation on the interaction |
| --- | --- |
| L12A | disrupting interaction |

Variants of: B1
Details: with ap2b1_rat Ap2b1, P62944
Chain of ap2b1_rat Ap2b1, P62944 (P62944 whole entry): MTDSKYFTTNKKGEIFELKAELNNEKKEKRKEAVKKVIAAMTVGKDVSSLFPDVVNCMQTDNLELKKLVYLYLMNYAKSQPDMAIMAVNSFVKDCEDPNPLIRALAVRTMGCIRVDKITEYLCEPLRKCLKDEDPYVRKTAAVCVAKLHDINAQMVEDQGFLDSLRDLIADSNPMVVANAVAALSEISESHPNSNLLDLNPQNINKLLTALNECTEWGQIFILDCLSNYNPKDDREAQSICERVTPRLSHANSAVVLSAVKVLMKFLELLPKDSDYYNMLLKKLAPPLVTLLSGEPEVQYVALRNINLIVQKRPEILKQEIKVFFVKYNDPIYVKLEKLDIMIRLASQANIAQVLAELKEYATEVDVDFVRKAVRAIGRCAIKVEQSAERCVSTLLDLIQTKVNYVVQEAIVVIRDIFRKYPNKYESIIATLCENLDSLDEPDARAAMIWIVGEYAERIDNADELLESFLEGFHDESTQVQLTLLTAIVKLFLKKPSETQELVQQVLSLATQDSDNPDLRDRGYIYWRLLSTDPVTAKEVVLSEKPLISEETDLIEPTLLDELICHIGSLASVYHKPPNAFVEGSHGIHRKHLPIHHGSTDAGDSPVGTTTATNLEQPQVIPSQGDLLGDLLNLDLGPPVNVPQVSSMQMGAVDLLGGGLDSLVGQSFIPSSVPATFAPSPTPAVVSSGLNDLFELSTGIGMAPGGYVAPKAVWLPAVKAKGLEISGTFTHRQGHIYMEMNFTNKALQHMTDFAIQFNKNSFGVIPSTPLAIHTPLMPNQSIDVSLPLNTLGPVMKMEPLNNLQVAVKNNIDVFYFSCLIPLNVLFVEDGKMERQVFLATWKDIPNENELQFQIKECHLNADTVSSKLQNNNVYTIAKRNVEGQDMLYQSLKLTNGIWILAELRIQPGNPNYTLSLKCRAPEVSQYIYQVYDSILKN

| Variant | effect of a mutation on the interaction |
| --- | --- |
| L12A | decreasing interaction |

Variants of: B1
Details: with ap2b1_mouse Ap2b1, Q9DBG3
Chain of ap2b1_mouse Ap2b1, Q9DBG3 (Q9DBG3 whole entry): as the sequence (P62944 whole entry) above, with A612T counted along it

| Variant | effect of a mutation on the interaction |
| --- | --- |
| L13A | increasing interaction |

Variants of: B2
Details: with lamp1_mouse Lamp1, P11438

| Variant | effect of a mutation on the interaction |
| --- | --- |
| L12A | disrupting interaction |
